From article PMC4500961, “H2O2 production rate in Lactobacillus johnsonii is modulated via the interplay of a heterodimeric flavin oxidoreductase with a soluble 28 Kd PAS domain containing protein” (Frontiers in Microbiology, 2015)

Legend:
[1] = biological target: FRedB fused to the zinc finger DNA-binding domain of murine Zif268 (pACTR-fredB) (Lactobacillus johnsonii N6.2); test: two-hybrid; bacterial two-hybrid in E. coli KDZifΔZ (ω subunit fusion and Zif268 fusion), 10 μM IPTG, β-galactosidase activity with CPRG in arbitrary units; static or aerobic growth
[2] = biological target: His6-FRedB (putative FMN reductase FRedB of Lactobacillus johnsonii N6.2, from p15TV-fredB, individually purified) (Lactobacillus johnsonii N6.2)
FRedA/B = biological target: T1, FRedA/B (Lactobacillus johnsonii, UniProt A0A7D9N7Z8+A0A7D9N811); test: isothermal titration calorimetry; assay type: binding
T1 construct: gene T285_08435; full-length, both chains N-terminal His6, co-expressed and co-purified from E. coli BL21 (p15TV-fredA + pCDF-his-fredB); heterodimer 43 kDa
Description: isothermal titration calorimetry on FRedA/B | FMN binding to the FRedA/B heterodimer is an exergonic reaction

purified protein [3] = substrate: NC(=O)C1=CN([C@@H]2O[C@H](COP(=O)(O)OP(=O)(O)OC[C@H]3O[C@@H](n4cnc5c(N)ncnc54)[C@H](O)[C@@H]3O)[C@@H](O)[C@H]2O)C=CC1; test: purified protein; assay type: biochemical, Lactobacillus johnsonii; details: fixed flavin electron acceptor, 100 mM MES pH 5.5, 37 °C
purified protein [4] = substrate: Cc1cc2nc3c(=O)[nH]c(=O)nc-3n(C[C@H](O)[C@H](O)[C@H](O)COP(=O)(O)OP(=O)(O)OC[C@H]3O[C@@H](n4cnc5c(N)ncnc54)[C@H](O)[C@@H]3O)c2cc1C; test: purified protein; assay type: biochemical, Lactobacillus johnsonii; details: fixed NADH, 100 mM MES pH 5.5, 37 °C
purified protein [5] = substrate: Cc1cc2nc3c(=O)[nH]c(=O)nc-3n(C[C@H](O)[C@H](O)[C@H](O)COP(=O)(O)O)c2cc1C; test: purified protein; assay type: biochemical, Lactobacillus johnsonii; details: fixed NADH, 100 mM MES pH 5.5, 37 °C

## FRedA fused to the ω subunit of E. coli RNA polymerase (pBR-fredA) (natural protein)
[1]
  β-galactosidase activity: 11700 AU

## His6-FRedA (putative FMN reductase FRedA of Lactobacillus johnsonii N6.2, from p15TV-fredA) (natural protein)
[2]
  initial rate (V0) of NADH oxidase activity, FRedB preincubated with purified LjPAS (reduced by 50%) (μmol min^-1 mg^-1): 2.6
  initial rate (Vo) of NADH oxidase activity, both monomers combined and incubated with FMN before addition of NADH (μmol min^-1 mg^-1): 31.3
  initial rate of NADH oxidase activity, FRedA preincubated with FMN before addition of FRedB (μmol min^-1 mg^-1): 0.27
  initial rate of NADH oxidase activity, FRedB preincubated with FMN before addition of FRedA (μmol min^-1 mg^-1): 6.48
  initial rate of NADH oxidase activity, purified LjPAS added after FRedA and FRedB were preincubated with FMN (not significantly slower) (μmol min^-1 mg^-1): 25.2

## Cc1cc2nc3c(=O)[nH]c(=O)nc-3n(C[C@H](O)[C@H](O)[C@H](O)COP(=O)(O)O)c2cc1C [FMN]
FRedA/B
  Kd: 1960 ± 130 nM

B1: FRedA/B (Lactobacillus johnsonii N6.2) (protein)
chain 1: MKLLAIVGTNADFSYNRFLDQFMAKRYKDQAEIEVYEIADLPRFKKEAQPDSKVEEFKNKIREADGVIFATPEYDHGIPSALKSAMEWTGSHAQGNADVMKMKPAMVLGTSYGIQGASRAQEEMREILLSPDQSANVLPGNEVLIGHAADKFDKNTGDLLDQETIHAIDLAFNNFVKFVEQAQK
chain 2: MKLFAIVGSNADHSYNRDLLNFIKKHFTDRYDIELGEVKDLPMFKEGVKEPAAVASFAKKVADADAVLISTPEQQHSVPSSLKSALEWLSSAEHPFKDKPVVIVGTSVLPQGSARGQSHLKLVLSSPGFGAKVFNGDEFMMGTAPEQFDENGNLPAGTVKFLDHFFDEFDSFYAEVSK
notes: full-length, both chains N-terminal His6, co-expressed and co-purified from E. coli BL21 (p15TV-fredA + pCDF-his-fredB); heterodimer 43 kDa
Purified protein [3]
  Km: 59.68 ± 5.8 µM
  Vmax: 185 µmol/min/mg
  kcat: 132 s⁻¹
  kcat/Km: 2.22e+06 M⁻¹ s⁻¹
Purified protein [4]
  Km: 19.85 ± 2.5 µM
  Vmax: 67 µmol/min/mg
  kcat: 48 s⁻¹
  kcat/Km: 2.42e+06 M⁻¹ s⁻¹
Purified protein [5]
  Km: 20.36 ± 2.6 µM
  Vmax: 204 µmol/min/mg
  kcat: 146 s⁻¹
  kcat/Km: 7.16e+06 M⁻¹ s⁻¹
